Data taken from publication PMC9024677.
One block for each substance: values may come before it.

What was measured:
[1] = target: bovine cardiac α-actin (bovine) (UniProt Q3ZC07); assay: pyrene-actin polymerization assay; 5 μM actin with pyrene-labelled skeletal muscle actin (20:1) in G-buffer; polymerization started with 2 mM MgCl2 (and 0.05 M KCl); fluorescence increase followed over time
[2] = target: bovine cardiac α-actin (bovine) (UniProt Q3ZC07); assay: other fluorescence titration; critical concentration of polymerization (monomer to filament): 0.1 to 10 μM c-actin with 5% pyrene-actin, 2 mM MgCl2 and 0.05 M KCl overnight; steady-state fluorescence against actin concentration
[3] = target: human cardiac α-actin mutant p.E361G (human)
[4] = target: bovine cardiac α-actin (bovine) (UniProt Q3ZC07)
[5] = target: human cardiac α-actin mutant p.A295S (human)
[6] = target: human cardiac α-actin mutant p.R312H (human)
[7] = target: human wild type cardiac α-actin (recombinant) (human) (UniProt P68032)
[8] = target: human cardiac α-actin mutant p.E361G (human); assay: pyrene-actin polymerization assay; 5 μM actin with pyrene-labelled skeletal muscle actin (20:1) in G-buffer; polymerization started with 2 mM MgCl2 (and 0.05 M KCl); fluorescence increase followed over time
[9] = target: human cardiac α-actin mutant p.E361G (human); assay: other fluorescence titration; critical concentration of polymerization (monomer to filament): 0.1 to 10 μM c-actin with 5% pyrene-actin, 2 mM MgCl2 and 0.05 M KCl overnight; steady-state fluorescence against actin concentration
[10] = target: human wild type cardiac α-actin (recombinant) (human) (UniProt P68032); assay: pyrene-actin polymerization assay; 5 μM actin with pyrene-labelled skeletal muscle actin (20:1) in G-buffer; polymerization started with 2 mM MgCl2 (and 0.05 M KCl); fluorescence increase followed over time
[11] = target: deoxyribonuclease I (DNase I) (bovine) (UniProt P00639)
[12] = target: human wild type cardiac α-actin (recombinant) (human) (UniProt P68032); assay: other fluorescence titration; critical concentration of polymerization (monomer to filament): 0.1 to 10 μM c-actin with 5% pyrene-actin, 2 mM MgCl2 and 0.05 M KCl overnight; steady-state fluorescence against actin concentration
[13] = target: human cardiac α-actin variant p.R312K (human); assay: pyrene-actin polymerization assay; 5 μM actin with pyrene-labelled skeletal muscle actin (20:1) in G-buffer; polymerization started with 2 mM MgCl2 (and 0.05 M KCl); fluorescence increase followed over time
[14] = target: human cardiac α-actin variant p.R312K (human); assay: other fluorescence titration; critical concentration of polymerization (monomer to filament): 0.1 to 10 μM c-actin with 5% pyrene-actin, 2 mM MgCl2 and 0.05 M KCl overnight; steady-state fluorescence against actin concentration
[15] = target: human cardiac α-actin mutant p.R312H (human); assay: pyrene-actin polymerization assay; 5 μM actin with pyrene-labelled skeletal muscle actin (20:1) in G-buffer; polymerization started with 2 mM MgCl2 (and 0.05 M KCl); fluorescence increase followed over time
[16] = target: human cardiac α-actin mutant p.R312H (human); assay: other fluorescence titration; critical concentration of polymerization (monomer to filament): 0.1 to 10 μM c-actin with 5% pyrene-actin, 2 mM MgCl2 and 0.05 M KCl overnight; steady-state fluorescence against actin concentration
[17] = target: human cardiac α-actin mutant p.A295S (human); assay: pyrene-actin polymerization assay; 5 μM actin with pyrene-labelled skeletal muscle actin (20:1) in G-buffer; polymerization started with 2 mM MgCl2 (and 0.05 M KCl); fluorescence increase followed over time
[18] = target: human cardiac α-actin mutant p.A295S (human); assay: other fluorescence titration; critical concentration of polymerization (monomer to filament): 0.1 to 10 μM c-actin with 5% pyrene-actin, 2 mM MgCl2 and 0.05 M KCl overnight; steady-state fluorescence against actin concentration

deoxyribonuclease I (DNase I) (bovine), sequence (P00639 23-282): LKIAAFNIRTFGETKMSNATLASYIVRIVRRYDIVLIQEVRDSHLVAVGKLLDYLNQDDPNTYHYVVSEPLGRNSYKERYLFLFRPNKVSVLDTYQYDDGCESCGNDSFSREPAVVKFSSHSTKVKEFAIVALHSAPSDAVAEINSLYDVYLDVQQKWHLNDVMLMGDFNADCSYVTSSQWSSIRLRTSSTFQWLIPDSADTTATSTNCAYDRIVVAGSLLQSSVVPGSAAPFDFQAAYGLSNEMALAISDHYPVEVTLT

half time of polymerization (t 1/2) [1]: 2.7 min | critical concentration of polymerization (Cc) [2]: 0.21 µM
Substance: bovine cardiac α-actin (from UniProt Q3ZC07 1-377) (natural protein)

half time of polymerization (t 1/2) [8]: 1.6 min | critical concentration of polymerization (Cc) [9]: 0.2 µM
Substance: human cardiac α-actin mutant p.E361G (natural protein)

half time of polymerization (t 1/2) [15]: 10.8 min | critical concentration of polymerization (Cc) [16]: 0.7 µM
Substance: human cardiac α-actin mutant p.R312H (natural protein)

half time of polymerization (t 1/2) [17]: 8.5 min | inhibition of DNase I activity (hyperchromicity assay), 3.2 μM DNase I pre-incubated with zero to 6.4 μM G-actin; inhibitory capacity against wt c-α-actin [11]: 33% | critical concentration of polymerization (Cc) [18]: 0.4 µM
Substance: human cardiac α-actin mutant p.A295S (natural protein)

The remaining lines, values behind:

Substance: rabbit skeletal muscle myosin subfragment-1 (domain or fragment)
apparent KM of the myosin-S1 ATPase stimulation by F-c-actin (double reciprocal plot), pCa 4.3, without cTm/cTn [3]: 0.075 µM | apparent KM of the myosin-S1 ATPase stimulation by F-c-actin decorated with cTm/cTn (6:1:1), pCa 4.3 [3]: 0.173 µM | apparent KM of the myosin-S1 ATPase stimulation by F-c-actin (double reciprocal plot), pCa 4.3, without cTm/cTn [4]: 0.081 µM | apparent KM of the myosin-S1 ATPase stimulation by F-c-actin (double reciprocal plot), pCa 4.3, without cTm/cTn [5]: 0.966 µM | apparent KM of the myosin-S1 ATPase stimulation by F-c-actin decorated with cTm/cTn (6:1:1), pCa 4.3 [5]: 3.31 µM | apparent KM of the myosin-S1 ATPase stimulation by F-c-actin (double reciprocal plot), pCa 4.3, without cTm/cTn [6]: 0.096 µM | apparent KM of the myosin-S1 ATPase stimulation by F-c-actin decorated with cTm/cTn (6:1:1), pCa 4.3 [6]: 0.0243 µM | apparent KM of the myosin-S1 ATPase stimulation by F-c-actin (double reciprocal plot), pCa 4.3, without cTm/cTn [7]: 0.165 µM | apparent KM of the myosin-S1 ATPase stimulation by F-c-actin decorated with cTm/cTn (6:1:1), pCa 4.3 [7]: 0.217 µM

Substance: human wild type cardiac α-actin (recombinant) (from UniProt P68032 1-377) (natural protein)
half time of polymerization (t 1/2) [10]: 2.5 min | inhibition of DNase I activity (hyperchromicity assay), 3.2 μM DNase I pre-incubated with zero to 6.4 μM G-actin; concentration for complete inhibition against skeletal muscle actin ([11]; scale: fold higher concentration than skeletal muscle actin): 3 | critical concentration of polymerization (Cc) [12]: 0.2 µM

Substance: human cardiac α-actin variant p.R312K (natural protein)
half time of polymerization (t 1/2) [13]: 3.08 min | critical concentration of polymerization (Cc) [14]: 0.21 µM
